From US20160108097A1 (UNITED STATES OF AMERICA AS REPRESENTED BY THE SECRETARY …, published 2016)

B1: 2mGRFT (2mG) (mGRFT-GlyThrGly-mGRFT) (designed binder)
chain: SSTHRKFGGSGGSPFSGSGLSSIAVRSGSYLDAIIIDGVHHGGSGGNLSPTFTFGSGEYISNMTIRSGDYIDNISFETNMGRRFGPYGGSGGSANTLSNVKVIQINGSAGDYLDSLDIYYEQYGTGSSTHRKFGGSGGSPFSGSGLSSIAVRSGSYLDAIIIDGVHHGGSGGNLSPTFTFGSGEYISNMTIRSGDYIDNISFETNMGRRFGPYGGSGGSANTLSNVKVIQINGSAGDYLDSLDIYYEQY
B2: 2mGRFT^long (2mG3) (mGRFT-GlyThrGlyGlyThrGlyGlyThrGly-mGRFT) (designed binder)
chain: SSTHRKFGGSGGSPFSGSGLSSIAVRSGSYLDAIIIDGVHHGGSGGNLSPTFTFGSGEYISNMTIRSGDYIDNISFETNMGRRFGPYGGSGGSANTLSNVKVIQINGSAGDYLDSLDIYYEQYGTGGTGGTGSSTHRKFGGSGGSPFSGSGLSSIAVRSGSYLDAIIIDGVHHGGSGGNLSPTFTFGSGEYISNMTIRSGDYIDNISFETNMGRRFGPYGGSGGSANTLSNVKVIQINGSAGDYLDSLDIYYEQY
notes: also called 2mGRFT3; 2mrG3
B3: 3mGRFT (3mG) (mGRFT-GlyThrGly-mGRFT-GlyThrGly-mGRFT) (designed binder)
chain: SSTHRKFGGSGGSPFSGSGLSSIAVRSGSYLDAIIIDGVHHGGSGGNLSPTFTFGSGEYISNMTIRSGDYIDNISFETNMGRRFGPYGGSGGSANTLSNVKVIQINGSAGDYLDSLDIYYEQYGTGSSTHRKFGGSGGSPFSGSGLSSIAVRSGSYLDAIIIDGVHHGGSGGNLSPTFTFGSGEYISNMTIRSGDYIDNISFETNMGRRFGPYGGSGGSANTLSNVKVIQINGSAGDYLDSLDIYYEQYGTGSSTHRKFGGSGGSPFSGSGLSSIAVRSGSYLDAIIIDGVHHGGSGGNLSPTFTFGSGEYISNMTIRSGDYIDNISFETNMGRRFGPYGGSGGSANTLSNVKVIQINGSAGDYLDSLDIYYEQY
B4: 4mGRFT (4mG) (mGRFT-GlyThrGly-mGRFT-GlyThrGly-mGRFT-GlyThrGly-mGRFT) (designed binder)
chain: SSTHRKFGGSGGSPFSGSGLSSIAVRSGSYLDAIIIDGVHHGGSGGNLSPTFTFGSGEYISNMTIRSGDYIDNISFETNMGRRFGPYGGSGGSANTLSNVKVIQINGSAGDYLDSLDIYYEQYGTGSSTHRKFGGSGGSPFSGSGLSSIAVRSGSYLDAIIIDGVHHGGSGGNLSPTFTFGSGEYISNMTIRSGDYIDNISFETNMGRRFGPYGGSGGSANTLSNVKVIQINGSAGDYLDSLDIYYEQYGTGSSTHRKFGGSGGSPFSGSGLSSIAVRSGSYLDAIIIDGVHHGGSGGNLSPTFTFGSGEYISNMTIRSGDYIDNISFETNMGRRFGPYGGSGGSANTLSNVKVIQINGSAGDYLDSLDIYYEQYGTGSSTHRKFGGSGGSPFSGSGLSSIAVRSGSYLDAIIIDGVHHGGSGGNLSPTFTFGSGEYISNMTIRSGDYIDNISFETNMGRRFGPYGGSGGSANTLSNVKVIQINGSAGDYLDSLDIYYEQY
B5: monomeric griffithsin mGRFT (1GS-S, PDB ID 3LL2) (designed binder)
chain: SSTHRKFGGSGGSPFSGSGLSSIAVRSGSYLDAIIIDGVHHGGSGGNLSPTFTFGSGEYISNMTIRSGDYIDNISFETNMGRRFGPYGGSGGSANTLSNVKVIQINGSAGDYLDSLDIYYEQY
notes: also called IGS-S; GRFT monomer

The binders below were run against HIV envelope glycoprotein gp120 (HIV) (assay: ITC).
For B1, the “enthalpy/entropy compensation (ΔH/ΔS) ratio” value was 1.16. In the case of B2, the “enthalpy/entropy compensation (ΔH/ΔS) ratio” value is reported as 1.33. B3 was tested, and the “enthalpy/entropy compensation (ΔH/ΔS) ratio” value was 1.19.

What follows are binders tested against Env of HIV-1RF virus (HIV-1 RF) (assay: cell-based or functional assay).
For B1, the “Anti-HIV EC50 (XTT cytopathicity assay, HIV-1RF, CEM-SS cells)” value (“Anti-HIV EC50” below) was 0.0027 nM. In the case of B4, the “Anti-HIV EC50” value is reported as 0.0012 nM. In the case of B5, the “Anti-HIV EC50” value is reported as 119 nM. For B2, the “Anti-HIV EC50” value was 0.0026 nM. In the case of B3, the “Anti-HIV EC50” value is reported as 0.001 nM.

The binders below were run against HIV-1 subtype B envelope PVO.4 (HIV-1 subtype B) (assay: cell-based or functional assay).
In the case of B1, the “IC50 (pseudovirus neutralization, JC53bl-13 cells)” value (shortened to “IC50”) is reported as 0.301 nM. In the case of B4, the “IC50” value is reported as 0.185 nM. With B2 the “IC50” value was 0.558 nM. In the case of B3, the “IC50” value is reported as 0.27 nM.

These binders were tested against HIV-1 subtype B envelope QH0692.42 (HIV-1 subtype B) (assay: cell-based or functional assay).
With B1 the “IC50” value was 0.202 nM. In the case of B4, the “IC50” value is reported as 0.17 nM. In the case of B2, the “IC50” value is reported as 0.513 nM. B3 was tested, and the “IC50” value was 0.223 nM.

The binders below were run against HIV-1 subtype B envelope JR-FL (HIV-1 subtype B) (assay: cell-based or functional assay).
For B1, the “IC50” value was 2.09 nM. With B4 the “IC50” value was 0.287 nM. B2 was tested, and the “IC50” value was 5.77 nM. In the case of B3, the “IC50” value is reported as 0.325 nM.

What follows are binders tested against HIV-1 subtype B envelope CAAN5342.A2 (HIV-1 subtype B) (assay: cell-based or functional assay).
In the case of B1, the “IC50” value is reported as 5.27 nM. B4 was tested, and the “IC50” value was 0.232 nM. With B2 the “IC50” value was 16.9 nM. B3 was tested, and the “IC50” value was 0.326 nM.

The binders below were run against HIV-1 subtype C envelope Du156.12 (HIV-1 subtype C) (assay: cell-based or functional assay).
For B1, the “IC50” value was 0.0182 nM. For B4, the “IC50” value was 0.0887 nM. With B2 the “IC50” value was 0.0616 nM. For B3, the “IC50” value was 0.0794 nM.

The binders below were run against HIV-1 subtype C envelope Du179.14 (HIV-1 subtype C) (assay: cell-based or functional assay).
With B1 the “IC50” value was 0.158 nM. With B4 the “IC50” value was 0.0934 nM. B2 was tested, and the “IC50” value was 0.144 nM. B3 was tested, and the “IC50” value was 0.124 nM.

These binders were tested against HIV-1 subtype C envelope COT6.15 (HIV-1 subtype C) (assay: cell-based or functional assay).
For B1, the “IC50” value was 1.46 nM. B4 was tested, and the “IC50” value was 0.273 nM. With B2 the “IC50” value was 2.52 nM. With B3 the “IC50” value was 0.412 nM.

The binders below were run against HIV-1 subtype C envelope DU151.2 (HIV-1 subtype C) (assay: cell-based or functional assay).
B1 was tested, and the “IC50” value was 0.694 nM. B4 was tested, and the “IC50” value was 0.3 nM. B2 was tested, and the “IC50” value was 1.7 nM. With B3 the “IC50” value was 0.308 nM.

The binders below were run against HIV-1 subtype C envelope CAP206.8 (HIV-1 subtype C) (assay: cell-based or functional assay).
For B1, the “IC50” value was 0.178 nM. For B4, the “IC50” value was 0.164 nM. For B2, the “IC50” value was 0.696 nM. With B3 the “IC50” value was 0.181 nM.

These binders were tested against HIV-1 subtype A envelope Q23.17 (HIV-1 subtype A) (assay: cell-based or functional assay).
In the case of B1, the “IC50” value is reported as 7.26 nM. B4 was tested, and the “IC50” value was 0.276 nM. For B2, the “IC50” value was 7.16 nM. For B3, the “IC50” value was 0.462 nM.

Each binder was assayed against HIV-1 subtype A envelope Q168.a2 (HIV-1 subtype A) (assay: cell-based or functional assay).
B1 was tested, and the “IC50” value was 1.55 nM. With B4 the “IC50” value was 0.273 nM. For B2, the “IC50” value was 5.28 nM. B3 was tested, and the “IC50” value was 0.331 nM.

The binders below were run against GRFT-resistant envelope Du179 GRFT c17 (R) (assay: cell-based or functional assay).
B1 was tested, and the “IC50” value was 36 nM and the “fold reduction in activity between the WT (Du179.14) and R viruses” value (shortened to “fold reduction … (Du179.14) and R viruses”) was 228 fold. In the case of B4, the “IC50” value is reported as 2.08 nM and the “fold reduction … (Du179.14) and R viruses” value is reported as 22 fold. With B2 the “IC50” value was 34.4 nM and the “fold reduction … (Du179.14) and R viruses” value was 239 fold. For B3, the “IC50” value was 3.86 nM and the “fold reduction … (Du179.14) and R viruses” value was 31 fold.

The binders below were run against GRFT-resistant envelope Du156R18 (R) (assay: cell-based or functional assay).
With B1 the “IC50” value was 27.1 nM and the “fold reduction in activity between the WT (Du156.12) and R viruses” value (shortened to “fold reduction … (Du156.12) and R viruses”) was 1490 fold. With B4 the “IC50” value was 0.688 nM and the “fold reduction … (Du156.12) and R viruses” value was 8 fold. For B2, the “IC50” value was 26 nM and the “fold reduction … (Du156.12) and R viruses” value was 422 fold. With B3 the “IC50” value was 1.11 nM and the “fold reduction … (Du156.12) and R viruses” value was 14 fold.

The binders below were run against HIV envelope glycoprotein gp120 (HIV) (assay: ITC, 30 °C, lectin titrated into gp120).
For B5, the Kd was 112 nM, the TΔS was -26 kcal/mol and the ΔG was -9.47 kcal/mol. It also gave a ΔH of -35.5 kcal/mol.

The binders below were run against HIV envelope glycoprotein gp120 (HIV) (assay: ITC, 30 °C, tandemer (180 µM) titrated into gp120 (2.5 µM)).
For B1, the Kd was 5 nM, the TΔS was -59.9 kcal/mol and the ΔG was -11.6 kcal/mol. It also gave a ΔH of -69.6 kcal/mol. B2 showed a Kd of 3 nM, a TΔS of -35.4 kcal/mol and a ΔG of -11.8 kcal/mol. It also gave a ΔH of -47.2 kcal/mol. For B3, the Kd was 3 nM, the TΔS was -62.7 kcal/mol and the ΔG was -11.8 kcal/mol. It also gave a ΔH of -74.4 kcal/mol.
